Experimental data: US20220040304A1, “A COMPOSITION FOR CANCER CELL DEATH AND ITS USE” (Industry-University Cooperation Foundation Hanyang …, priority 2018, published 2022)
Entries after “also recorded” stand apart in the source; their conditions may differ.

What was measured:
[1] = Fluorescence assay of purified proteins (excitation/emission); format: physicochemical; conditions: protein 10 μM in 1×PBS
Experimental: 100 μL of buffer (1×PBS) containing the protein purified in Example 1 (final concentration: 10 μM) was dispensed into a 96-well plate (SPL Cell Culture Plate, 96 well (SPL, Cat #32096)). Afterward, a fluorescence signal level was detected by fluorescence assay using a Thermo Scientific™ Varioskan™ Flash Multimode Reader.

[2] = tested on: MCF-7 cells; experiment: Cell death according to incubation time after various Co-h concentrations (SYTOX Green/DAPI); format: cell-based, human; conditions: MCF-7, protein 10 μM
Experimental: (§1) MCF-7 cells were seeded at 5×10^5 cells/mL in a 96-well plate (SPL Cell Culture Plate, 96 well (SPL, Cat #30096)), and cultured at 37° C. for 24 hours (overnight). After the culture for 24 hours, the cells were washed with FBS & Phenol red-free media (RPMI, Well Gene., Korea, Cat #LM011-02), and 100 μL of an FBS-free medium containing the purified protein (final concentration: 10 μM) was added, followed by reaction at 37° C. for 24 hours.
After the reaction for 24 hours, the cells were washed with FBS & Phenol red-free media (RPMI), and then 100 μL of FBS & Phenol red-free media (RPMI) was added again. The reaction was performed by each concentration of the Co-h substrate solution, and then the cells were incubated at 37° C.
(§2) After incubation, 50 μL of SYTOX Green (final concentration: 261 nM) staining DNA of dead cells and DAPI 10 μL of DAPI staining DNA of live cells were added, followed by reaction for 5 minutes. Cell death was confirmed by detecting KillerRed, SYTOX Green and DAPI fluorescence according to the light irradiation time for cells using a confocal microscope.

[3] = tested on: MCF-7 cells; experiment: Cell death according to incubation time per light irradiation time (SYTOX Green/DAPI); format: cell-based, human; conditions: MCF-7, protein 10 μM
Experimental: as §1
After the reaction for 24 hours, the cells were washed with FBS & Phenol red-free media (RPMI), and then 100 μL of FBS & Phenol red-free media (RPMI) was added again. After light irradiation at 10 mW/cm^2 over time, the cells were incubated at 37° C.
as §2, with “cells and 10 μL” for “cells and DAPI 10 μL”, “of DAPI (Vector Laboratories Inc., USA) staining DNA” for “of DAPI staining DNA”

[4] = tested on: MDA-MB-231 cancer cells; experiment: IVIS in vivo imaging and tumor size in mice with MDA-MB-231 tumors; set-up: species or system mouse; conditions: NOD-SCID mice, MDA-MB-231 tumor, protein injected into tumor (50 μM), Co-h 5 μg/50 μL subcutaneously
Experimental: MDA-MB-231 cancer cells (ATCC) were cultured in RPMI (Corning Inc.) containing 5% FBS (Corning Inc.) and 1% penicillin and streptomycin. Mice used in this experiment were 7-week-old NOD-SCID species, and purchased from Central Lab Animal Inc., and then the mice were raised without diet restriction for 2 weeks for acclimation at this research institute. The weight of a female mouse ranged from 17 to 23 g.
This animal experiment was conducted after approval by the Institute of Animal Care and Use Committee (IACUC) of the Asan Medical Center in compliance with the guidelines. 1×10^6 cells/50 μL of MDA-MB-231 cells diluted in RPMI and 50 μL of Matrigel (Corning Inc.) were subcutaneously injected into the adipose body of a NOD-SCID mouse. On day 9 after cell injection, a protein containing 20 μL of Matrigel (RLuc8.6-KR-LP, final concentration: 50 μM) was injected into a tumor when the tumor size of the mouse was approximately 40 mm^2. After respiratory anesthesia of the mouse, fluorescence emitted from the protein was imaged using an IVIS spectrum (Xenogen Inc.). For BL-PDT, Co-h (5 μg/50 μL, Nanolight Technology.) was diluted in 1×PBS (Corning) and then subcutaneously injected. The light emission from Co-h was imaged after the IVIS spectrum was set to 5 seconds.

B1: KR: first protein KillerRed, ROS-generating protein (superoxide), expressed from pRSET-KillerRed, 31 kDa (protein)
chain: MRGSHHHHHHGMASMTGGQQMGRDLYDDDDKDPMLCCMRRTKQVEKNDEDQKISEGGPALFQSDMTFKIFIDGEVNGQKFTIVADGSSKFPHGDFNVHAVCETGKLPMSWKPICHLIQYGEPFFARYPDGISHFAQECFPEGLSIDRTVRFENDGTMTSHHTYELDDTCVVSRITVNCDGFQPDGPIMRDQLVDILPNETHMFPHGPNAVRQLAFIGFTTADGGLMMGHFDSKMTFNGSRAIEIPGPHFVTIITKQMRDTSDKRDHVCQREVAYAHSVPRITSAIGSDED
modifications: pRSET-KillerRed
notes: first protein KillerRed, ROS-generating protein (superoxide), expressed from pRSET-KillerRed, 31 kDa
With B1 the “emission wavelength (fluorescence)” value [1] was 610 nm and the excitation wavelength [1] was 585 nm.

B2: RLuc8.6-KR-LP: fusion protein of RLuc8.6, KillerRed and lead peptide WLEAAYQRFL, 71 kDa (protein)
chain: MRGSHHHHHHGMASMTGGQQMGRDLYDDDDKDPMASKVYDPEQRKRMITGPQWWARCKQMNVLDSFINYYDSEKHAENAVIFLHGNATSSYLWRHVVPHIEPVARCIIPDLIGMGKSGKSGNGSYRLLDHYKYLTAWFELLNLPKKIIFVGHDWGSALAFHYAYEHQDRIKAIVHMESVVDVIESWMGWPDIEEELALIKSEEGEKMVLENNFFVETLLPSKIMRKLEPEEFAAYLEPFKEKGEVRRPTLSWPREIPLVKGGKPDVVQIVRNYNAYLRASDDLPKLFIESDPGFFYNAIVEGAKKFPNTEFVKVKGLHFLQEDAPDEMGKYIKSFVERVLKNEQEFGGGMLCCMRRTKQVEKNDEDQKISEGGPALFQSDMTFKIFIDGEVNGQKFTIVADGSSKFPHGDFNVHAVCETGKLPMSWKPICHLIQYGEPFFARYPDGISHFAQECFPEGLSIDRTVRFENDGTMTSHHTYELDDTCVVSRITVNCDGFQPDGPIMRDQLVDILPNETHMFPHGPNAVRQLAFIGFTTADGGLMMGHFDSKMTFNGSRAIEIPGPHFVTIITKQMRDTSDKRDHVCQREVAYAHSVPRITSAIGSDEDGGGWLEAAYQRFL
modifications: pRSET-RLuc8.6-KillerRed-Lead peptide
For B2, the “cell incubation time after which the number of cells stained with SYTOX Green increased” value ([2]; 25 μM or 50 μM substrate solution for 5 minutes) was ≥ 30 min, the “cell incubation time at which cells stained with SYTOX Green were observed” value ([2]; 150 μM substrate solution for 5 minutes) was “approximately 10 minutes” and the “cell incubation time after which the number of cells stained with SYTOX Green increased” value ([3]; light 10 mW/cm^2 for 1 minute) was “over 1 hour”. For the same molecule, the “cell incubation time from which the number of cells stained with SYTOX Green increased” value ([3]; light 10 mW/cm^2 for 5 minutes or 10 minutes) was “approximately 30 minutes” and the tumor size [4] was “the smallest; also recorded: tumor growth is inhibited”.
